Consider four substances from US20260098089A1.

The target of assay [1] is Human CD7 on cells (CEM and other T-ALL cells, peripheral NK and T cells) (human) (UniProt P09564). Kind of assay: cell-based or functional assay.
For assay [2], the target named is Cynomolgus monkey (Macaca fascicularis) CD7 protein (soluble) (cynomolgus monkey (Macaca fascicularis)). Kind of assay: SPR, captured mAb, global fit 1:1 model. (In general: In SPR one partner is held on a chip, and binding of the other changes the refractive index at the surface.)
In assay [3] the target is Human CD7 protein (soluble) (human) (UniProt P09564). Kind of assay: SPR, captured mAb, global fit 1:1 model.
Human CD7 protein (soluble) (human), sequence (P09564 26-180 limits assumed): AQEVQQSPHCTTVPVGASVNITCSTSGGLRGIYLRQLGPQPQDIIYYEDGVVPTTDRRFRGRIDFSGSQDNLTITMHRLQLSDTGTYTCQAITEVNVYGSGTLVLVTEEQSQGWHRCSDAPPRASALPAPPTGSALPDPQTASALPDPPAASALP

Human CD7 on cells (CEM and other T-ALL cells, peripheral NK and T cells) (human), sequence (P09564 26-238 limits assumed): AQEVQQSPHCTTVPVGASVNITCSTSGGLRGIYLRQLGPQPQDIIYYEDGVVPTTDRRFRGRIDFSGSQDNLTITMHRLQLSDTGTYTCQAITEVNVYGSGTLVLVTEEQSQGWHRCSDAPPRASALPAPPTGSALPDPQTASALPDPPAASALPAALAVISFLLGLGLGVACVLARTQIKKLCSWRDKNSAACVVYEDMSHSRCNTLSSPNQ
Cynomolgus monkey (Macaca fascicularis) CD7 protein (soluble) (cynomolgus monkey (Macaca fascicularis)), sequence (chain, as listed by the source limits assumed): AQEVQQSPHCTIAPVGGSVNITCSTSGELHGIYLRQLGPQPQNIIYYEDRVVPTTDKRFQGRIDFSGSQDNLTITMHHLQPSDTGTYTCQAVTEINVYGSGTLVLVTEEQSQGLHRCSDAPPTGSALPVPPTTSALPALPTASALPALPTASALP

Take TH69 E345R (antibody): in assay [1], the EC50, CDC assay on CEM cells turned out to be 0.21 nM and the Maximum killing, CDC assay on CEM cells was found to be 87.1%.
For RFT2 IgG1 (antibody), in assay [2], the Kd worked out at 50.8 nM, the koff was found to be 0.0254 s⁻¹ and the on-rate constant (kon) came out at 529000 M⁻¹ s⁻¹. In assay [3], this substance came in with a dissociation constant (Kd) of 6.22 nM, an off-rate (koff) of 0.0037 s⁻¹ and a kon of 611000 M⁻¹ s⁻¹.
Regarding TH69 (antibody), in assay [3], the equilibrium dissociation constant (Kd) was 0.279 nM, the off-rate (koff) worked out at 0.000125 s⁻¹ and the on-rate constant (kon) came to 451000 M⁻¹ s⁻¹.
Take RFT2 IgG1 E345R (antibody): in assay [1], the CDC assay on CEM cells, EC50 (FIG. 1) was < 1 nM; the CDC assay on CEM cells, maximum killing (FIG. 1) stood at 100%; the EC50, CDC assay on CEM cells is 0.22 nM; the Maximum killing, CDC assay on CEM cells amounted to 98.5%.

Usually Kd stands for the concentration at which binding is half-saturated. What is called koff is the first-order rate constant of dissociation. A word on the kon: it is the second-order rate constant of association.
